Target: the molecule itself
Assay: SAXS

Row | Protein | binding result
1 | SmFtsZ-WT (full-length Streptococcus mutans FtsZ) (natural protein) MAFSFDAASVQGAVIKVIGVGGGGGNAINRMIDEGVAGVEFIAANTDIQALSSSKAETVIQLGPKLTRGLGAGGQPEIGRKAAEESEEALTEALTGADMVFITAGMGGGSGTGAAPVIARIAKGLGSLTVAVVTRPFGFEGSKRGNYAIEGINELRDEVDTLLIISNNNLLEIVDKKTPLLEALSEADNVLRQGVQGITDLITSPGLINLDFADVKTVMASKGNALMGIGIGTGEERVVEAARKAIYSPLLETTIDGAEDVIVNVTGGLDMTLTEAEEASEIVNQAAGHGVNIWLGTSIDDSMKDEIRVTVVATGVRPDKADQVSGIRRQASSYTQPRAQQQAPSSNSAQPNFERRQNFDFDLNESPEMPAAEPQQTQSSSEPQQSAFGDWNLRRENIARPTEGEIDSQLKMSSFSADSDDDDELETPPFFKNR | binds
2 | SmFtsZ-R68A (natural protein) MAFSFDAASVQGAVIKVIGVGGGGGNAINRMIDEGVAGVEFIAANTDIQALSSSKAETVIQLGPKLTAGLGAGGQPEIGRKAAEESEEALTEALTGADMVFITAGMGGGSGTGAAPVIARIAKGLGSLTVAVVTRPFGFEGSKRGNYAIEGINELRDEVDTLLIISNNNLLEIVDKKTPLLEALSEADNVLRQGVQGITDLITSPGLINLDFADVKTVMASKGNALMGIGIGTGEERVVEAARKAIYSPLLETTIDGAEDVIVNVTGGLDMTLTEAEEASEIVNQAAGHGVNIWLGTSIDDSMKDEIRVTVVATGVRPDKADQVSGIRRQASSYTQPRAQQQAPSSNSAQPNFERRQNFDFDLNESPEMPAAEPQQTQSSSEPQQSAFGDWNLRRENIARPTEGEIDSQLKMSSFSADSDDDDELETPPFFKNR | binds

Source: publication doi:10.1101/2025.01.26.634952 (bioRxiv, 2025)
